# Residue numbers refer to the chain shown, from its start.
# T1: human CCR4 (hCCR4) (human, UniProt P51679 1-360)
# T1 construct: whole, on cells
# T1 sequence (looked up): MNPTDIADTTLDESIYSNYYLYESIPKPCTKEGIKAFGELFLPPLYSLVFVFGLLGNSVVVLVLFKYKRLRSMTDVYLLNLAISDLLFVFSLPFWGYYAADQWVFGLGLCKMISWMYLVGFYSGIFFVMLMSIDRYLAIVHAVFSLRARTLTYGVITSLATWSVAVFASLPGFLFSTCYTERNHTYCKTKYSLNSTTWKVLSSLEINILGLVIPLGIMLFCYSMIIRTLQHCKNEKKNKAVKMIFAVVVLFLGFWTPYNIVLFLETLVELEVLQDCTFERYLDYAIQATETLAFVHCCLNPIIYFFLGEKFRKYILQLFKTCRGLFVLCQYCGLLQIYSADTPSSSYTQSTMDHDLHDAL
# B1: mouse antibody 46A5C4B1 (MAb 2) (antibody, V domains shown)
# VH: EVQLVESGGGLVQPKGSLKLSCAASGFSFNAYAMNWVRQAPGKGLEWVARIRSKSNNYATYYADSVKDRFIISRDDSESMLYLQMNNLKTEDTAMYFCVRGGTYGSTSYFDYWGQGTTLTVSS
# VL: DIVMTQAAPSVPVTPGESVSISCRSSKSLLHSNGNTYLYWFLQRPGQSPQLLIYRMSNLASGVPDRFSGSGSGTAFTLRISRVEAEDVGVYYCMQHLEYPFTFGGGTKLEIK
# notes: Mouse monoclonal antibody from a hybridoma; also called A2
# B2: mouse antibody 41E1C2A5 (MAb 1) (antibody, V domains shown)
# VH: B1 VH with I71T, S79T, T107S
# VL: B1 VL with S22P, E110Q, K112R
# notes: Mouse monoclonal antibody from a hybridoma; also called A1
# B3: mouse antibody 80E4D1F11 (MAb 3) (antibody, V domains shown)
# VH: B1 VH with A31T, D68A, I71T
# VL: B1 VL
# notes: Mouse monoclonal antibody from a hybridoma; also called A3
# B4: murine-human chimeric (human IgG1) antibody 516D7D12 (antibody, V domains shown)
# VH: EVQLVESGGGLVQPKGSLKLSCAASGFSFNTYAMNWVRQAPGKGLEWVARIRTKSNNYATYYADSVKDRFTISRDDSESMLYLQMNNLKTEDTAMYYCVRGGSGLRYVRYFDVWGTGTTVTVSS
# VL: DIVMTQATPSVPVTPGESVSISCRSSKSLLHSNGNTYLYWFLQRPGQSPQLLIYRMSNLASGVPERFSGSGSGSAFTLRVSRVEAEDVGVYYCMQHLEYPFTFGSGTKLEIKR
# notes: Chimeric antibody derived from murine antibody A10 and human IgG1
# B5: murine-human chimeric (human IgG1) antibody 504E12D8D12 (antibody, V domains shown)
# VH: B4 VH with D64A, S79T, R106N
# VL: B4 VL with T8A, P12F, T14I, E65D, V80I
# notes: Chimeric antibody derived from murine antibody A18 and human IgG1; also called chimeric 504E12D8D12 mAb
# B6: murine-human chimeric (human IgG1) antibody 525F2F3F11 (antibody, V domains shown)
# VH: B4 VH with S79N
# VL: B4 VL
# notes: Chimeric antibody derived from murine antibody A11 and human IgG1
# B7: murine-human chimeric (human IgG1) antibody 41E1C2A5 (antibody, V domains shown)
# VH: B1 VH with I71T, S79T, T107S
# VL: B4 VL with T8A, S22P, E65D, S74T, V80I, S105G, E110Q, K112R
# B8: mouse antibody 516D7D12 (MAb 10) (antibody, V domains shown)
# VH: B4 VH
# VL: B1 VL with A8T, D65E, T74S, I80V, G105S
# B9: mouse antibody 526G1C12 (MAb 16) (antibody, V domains shown)
# VH: B4 VH with N30K, K43E, S79T, R106N, T116P
# VL: B1 VL with P12L, I21F, Y54F, T74S, G105S
# B10: mouse antibody 504E12D8D12 (MAb 18) (antibody, V domains shown)
# VH: B4 VH with D64A, S79T, R106N
# VL: B1 VL with P12F, T14I, T74S, G105S
# B11: mouse antibody 508C11A12 (MAb 5) (antibody, V domains shown)
# VH: B4 VH with S79N, M80I, L105I, R106K
# VL: B1 VL with D65E, T74S, G105S
# B12: mouse antibody 507B6B10 (MAb 14) (antibody, V domains shown)
# VH: B4 VH with T53S, L105I
# VL: B1 VL with L30Q, T36I, T74S, G105S
# B13: mouse antibody 506G6G5 (MAb 8) (antibody, V domains shown)
# VH: B4 VH with T53S, L105I, R106S
# VL: B1 VL with T74S, G105S
# B14: mouse antibody 529D10C10 (MAb 6) (antibody, V domains shown)
# VH: B4 VH with K15R, T31A, N86I, L105I, R109K
# VL: B1 VL with D65E, T74S, G105S
# B15: mouse antibody 531A3E12H8 (MAb 17) (antibody, V domains shown)
# VH: B4 VH with Y61F, D75H, L105I
# VL: B1 VL with P12T, N58D, T74S, G105S
# B16: mouse antibody 525F2F3F11 (MAb 11) (antibody, V domains shown)
# VH: B4 VH with S79N
# VL: B1 VL with A8T, D65E, T74S, I80V, G105S
# B17: mouse antibody 531A6A3 (MAb 9) (antibody, V domains shown)
# VH: B4 VH with N30K, S79T, R106N
# VL: B1 VL with T74S, G105S
# B18: mouse antibody 536H9D10 (MAb 7) (antibody, V domains shown)
# VH: B4 VH with K15G, T31A, N86I, L105I, R109K
# VL: B1 VL with D65E, T74S, G105S
# B19: mouse antibody 530H3G7D9 (MAb 12) (antibody, V domains shown)
# VH: EVQLVESGGGLVQPKGSLKLSCAASGFSFNTYAMNWVRQAPGKGLDWVARIRSKSNNYATYYADSVKDRFTISRDDSESMLYLQMNNLKTEDTAMYFCVRQTYGSRDYAMDYWGQGTSVTVSS
# VL: DVVMTQTPLSLPVSLGDQASISCRSSQSLVHSNGNTYLHWYLQKPGQSPKLLIYKVSNRFSGVPDRFSGSGSGTDFTLKISRVEAEDLGVYFCCQSTHVPPYTFGGGTKLEIK
# B20: mouse antibody 531B9B1C9 (MAb 13) (antibody, V domains shown)
# VH: B19 VH with T31A
# VL: B19 VL
# B21: mouse antibody 538H5G10 (MAb 19) (antibody, V domains shown)
# VH: B19 VH with T31A, D46E, Y58F, F97Y
# VL: B19 VL with Q18R, K50R, C94S, S96N
# B22: mouse antibody 509H4E10B3 (MAb 15) (antibody, V domains shown)
# VH: B19 VH with K15R, T31A, D46E, Y58F, F97Y
# VL: B19 VL with Q18R, K50R, C94S
# B23: mouse antibody 419C7B3B2 (MAb 4) (antibody, V domains shown)
# VH: EVQLQQSGPELVKPGSSVKISCKASGYTFTDYNMDWVKQSHGKSLEWIGAINPNNGGTGYTQKFKGKATLTVDKSSSTAFMELRSLTSEDSAVYYCARRGVYMFAYWGQGTLVTVSA
# VL: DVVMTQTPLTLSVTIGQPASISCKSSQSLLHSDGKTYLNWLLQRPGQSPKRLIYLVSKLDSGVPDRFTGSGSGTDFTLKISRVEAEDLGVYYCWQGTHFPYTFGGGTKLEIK
# Target: T2, human C-C chemokine receptor type 8 (hCCR8) (human, UniProt P51685 1-355)
# T2 sequence (P51685 whole entry): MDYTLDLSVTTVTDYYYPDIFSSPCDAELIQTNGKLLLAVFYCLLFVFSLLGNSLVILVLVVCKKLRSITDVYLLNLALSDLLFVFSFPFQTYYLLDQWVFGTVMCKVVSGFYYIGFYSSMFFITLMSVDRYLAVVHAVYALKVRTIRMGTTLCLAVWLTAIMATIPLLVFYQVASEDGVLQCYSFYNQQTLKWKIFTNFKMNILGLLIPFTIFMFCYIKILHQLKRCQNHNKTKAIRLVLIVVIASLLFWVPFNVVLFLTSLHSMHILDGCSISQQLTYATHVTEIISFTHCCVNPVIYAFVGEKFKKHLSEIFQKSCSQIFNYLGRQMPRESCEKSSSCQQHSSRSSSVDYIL
# Test: cell-based or functional assay
row,"IC50 (nM), antagonist activity measured by β-arrestin assay [nM]",Binder
1,6.24,B1
2,4.68,B2
3,7.11,B3
4,1.51,B4
5,0.867,B5
6,1.52,B6

# Target: T1, human CCR4 (hCCR4)
# Test: flow cytometry on hCCR4-expressing CHO-K1 cells against parental CHO-K1 cells
# Method: The antibodies were further screened for binding to human CCR4 (hCCR4) by flow cytometry. The antibodies were incubated with CHO-K1 cells and hCCR4-expressing CHO-K1 cells for 60 minutes at 4° C. The cells were washed thoroughly with PBS buffer and were then incubated with FITC-conjugated goat anti-mouse IgG Fc antibody or anti-human IgG Fc antibody. Mean Fluorescence Intensity (MFI) of antibody binding on the cells were analyzed by flow cytometry (Table 7).
row,binding result,Binder
1,no binding,B1
2,no binding,B2
3,no binding,B3
4,no binding,B4
5,no binding,B5
6,no binding,B6

# Target: T2, human C-C chemokine receptor type 8 …
# Test: cell-based or functional assay
# Remark: another data set of the same source
row,EC50 of ADCC activity (column head prints IC50 (nM)); ADCC/NFAT-reporter-Jurkat bioassay [nM],Binder
1,0.049,B7
2,0.015,B5

# Target: T2, human C-C chemokine receptor type 8 …
# Test: cell-based or functional assay
# Remark: another data set of the same source
row,"inhibition of β-arrestin production (CCR8 CHO-K1 β-arrestin bioassay, 2 nM hCCL1, subclone supernatant) [%]",Binder
1,≥ 50,B1
2,≥ 50,B8
3,≥ 50,B9
4,≥ 50,B10
5,≥ 50,B11
6,≥ 50,B12
7,≥ 50,B13
8,≥ 50,B14
9,≥ 50,B15
10,≥ 50,B16
11,≥ 50,B17
12,≥ 50,B18
13,≥ 50,B2
14,≥ 50,B3
15,≥ 50,B19
16,≥ 50,B20
17,≥ 50,B21
18,≥ 50,B22
19,≥ 50,B23

# — US20260109770A1 (REMD BIOTHERAPEUTICS, published 2026)
